Target: HmenB3 monoclonal antibody against Neisseria meningitidis serogroup B capsular polysaccharide
Test: cell-based or functional assay

B1: Naid60 anti-idiotypic monoclonal antibody (Ab2) to HmenB3 (antibody, IgG1, V domains shown)
VH: EVKLVESGGGLVQPGGSLKLSCATSGFLFTDYYMFWVRQTPEKRLEWVAYISNGGGDTYYPDTVKGRFTISRDNAKNALYLQMSRLKSEDTAMYYCARHKGYYGYYYALDYWGQGT
VL: DIQLTQSPATLSVTPGDSVSLSCRASQSISNNLHWYQQKSHESPRLLIKYASQSISGIPSRFSGSGSGTDFTLSINSVETEDFGMYFCQQSNNWPLTFGAGTK
B1 gave a bacterial cell death rate (complement-mediated bactericidal activity of HmenB3 against NMGB) at 4 mg/L Naid60 of 57.7% and a bacterial cell death rate (complement-mediated bactericidal activity of HmenB3 against NMGB) at 40 mg/L Naid60 of 0%.

— patent US7250164
